Assay results from patent US20210324076A1 (AMPHIVENA THERAPEUTICS, published 2021).

Each binder was assayed against human CD3 (human, UniProt P07766 23-207; P09693 23-182; P04234 22-171; P20963 22-164) (assay: cell-based or functional assay).
human CD3, sequence (P07766 23-207, chain 1 of 4): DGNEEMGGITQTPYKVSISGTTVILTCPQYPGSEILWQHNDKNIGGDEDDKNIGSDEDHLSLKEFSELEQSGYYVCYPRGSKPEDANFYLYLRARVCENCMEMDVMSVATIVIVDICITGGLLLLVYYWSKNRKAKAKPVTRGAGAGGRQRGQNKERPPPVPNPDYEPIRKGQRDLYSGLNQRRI
human CD3, sequence (P09693 23-182, chain 2 of 4): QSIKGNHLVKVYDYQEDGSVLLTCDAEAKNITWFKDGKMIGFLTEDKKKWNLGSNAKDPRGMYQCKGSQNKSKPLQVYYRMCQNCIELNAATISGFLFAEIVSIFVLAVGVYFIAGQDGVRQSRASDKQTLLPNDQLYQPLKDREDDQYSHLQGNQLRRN
human CD3, sequence (P04234 22-171, chain 3 of 4): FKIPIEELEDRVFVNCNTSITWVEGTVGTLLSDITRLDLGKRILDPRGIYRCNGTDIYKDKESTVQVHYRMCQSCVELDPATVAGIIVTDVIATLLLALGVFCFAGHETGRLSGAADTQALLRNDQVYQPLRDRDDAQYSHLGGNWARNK
human CD3, sequence (P20963 22-164, chain 4 of 4): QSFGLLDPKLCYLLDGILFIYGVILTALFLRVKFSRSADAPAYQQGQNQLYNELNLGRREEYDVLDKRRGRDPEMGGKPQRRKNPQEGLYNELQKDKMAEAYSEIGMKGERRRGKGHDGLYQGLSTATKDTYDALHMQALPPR

Row | CD25 Induction EC50 (PBMC, 24 h) [nM] | CD69 Induction EC50 (PBMC, 24 h) [nM] | Binder
1 | 0.01 | 0.006 | CD33/CD3 2×2 T-cell engager 10 (bispecific antibody) DIQMTQSPSSLSASVGDRVTITCRSSTGAVTTSNYANWVQQKPGKAPKGLIGGTNKRAPGVPSRFSGSLIGDKATLTISSLQPEDFATYYCALWYSNLWVFGQGTKVEIKGGSGGSQVQLVQSGAEVKKPGASVKVSCKASGYTFTSYDINWVRQAPGQGLEWMGWMNPNSGNTGFAQKFQGRVTMTRDTSTSTVYMELSSLRSEDTAVYYCARDRANTDYSFGMDVWGQGTLVTVSSGGSGQSVLTQPPSASGTPGQRVTISCSGSRSNIGSNTVNWYQQLPGTAPKLLIYGNNQRPSGVPDRFSGSKSGTSASLAISGLQSEDEADYYCATWDDSLIGWVFGGGTKLTVLGGSGGSEVQLVESGGGLVQPGGSLRLSCAASGFTFSTYAMNWVRQAPGKGLEWVGRIRSKYNNYATYYADSVKDRFTISRDDSKNSLYLQMNSLKTEDTAVYYCARHGNFGNSYVSWFAYWGQGTLVTVSSAAAGSHHHHHH
2 | 0.117 | 0.087 | CD33/CD3 2×2 T-cell engager 03 (bispecific antibody) DIQMTQSPSSLSASVGDRVTITCRSSTGAVTTSNYANWVQQKPGKAPKGLIGGTNKRAPGVPARFSGSGSGTDFTLTISSLQPEDFATYYCALWYSNLWVFGQGTKVEIKGGSGGSQVQLVQSGAEVKKPGASVKVSCKASGYTFTSYDINWVRQAPGQGLEWMGWMNPNSGNTGFAQKFQGRVTMTRDTSTSTVYMELSSLRSEDTAVYYCARDRANTDYSFGMDVWGQGTLVTVSSGGSGQSVLTQPPSASGTPGQRVTISCSGSRSNIGSNTVNWYQQLPGTAPKLLIYGNNQRPSGVPDRFSGSKSGTSASLAISGLQSEDEADYYCATWDDSLIGWVFGGGTKLTVLGGSGGSEVQLVESGGGLVQPGGSLRLSCAASGFTFSTYAMNWVRQAPGKGLEWVGRIRSKYNNYATYYADSVKDRFTISRDDSKNSLYLQMNSLKTEDTAVYYCARHGNFGNSYVSWFAYWGQGTLVTVSSAAAGSHHHHHH
3 | 0.011 | 0.007 | CD33/CD3 2×2 T-cell engager 09 (bispecific antibody) DIQMTQSPSSLSASVGDRVTITCRSSTGAVTTSNYANWVQQKPGKAPKGLIGGTNKRAPGVPSRFSGSLIGDKATLTISSLQPEDFATYYCALWYSNLWVFGQGTKVEIKGGSGGSQVQLVQSGAEVKKPGASVKVSCKASGYTFTSYDINWVRQAPGQGLEWMGWMNPNSGNTGFAQKFQGRVTMTRDTSTSTVYMELSSLRSEDTAVYYCARDRANTDFSYGMDVWGQGTLVTVSSGGSGQSVLTQPPSASGTPGQRVTISCSGSRSNIGSNTVNWYQQLPGTAPKLLIYGNNQRPSGVPDRFSGSKSGTSASLAISGLQSEDEADYYCATWDDSLIGWVFGGGTKLTVLGGSGGSEVQLVESGGGLVQPGGSLRLSCAASGFTFSTYAMNWVRQAPGKGLEWVGRIRSKYNNYATYYADSVKDRFTISRDDSKNSLYLQMNSLKTEDTAVYYCARHGNFGNSYVSWFAYWGQGTLVTVSSAAAGSHHHHHH
4 | 0.03 | 0.022 | CD33/CD3 2×2 T-cell engager 13 (bispecific antibody) DIQMTQSPSSLSASVGDRVTITCRSSTGAVTTSNYANWVQQKPGKAPKGLIGGTNKRAPGVPSRFSGSLIGTDFTLTISSLQPEDFATYYCALWYSNLWVFGQGTKVEIKGGSGGSQVQLVQSGAEVKKPGASVKVSCKASGYTFTSYDINWVRQAPGQGLEWMGWMNPNSGNTGFAQKFQGRVTMTRDTSTSTVYMELSSLRSEDTAVYYCARDRAVTDYYYGMDVWGQGTLVTVSSGGSGQSVLTQPPSASGTPGQRVTISCSGSRSNIGSNTVNWYQQLPGTAPKLLIYGNNQRPSGVPDRFSGSKSGTSASLAISGLQSEDEADYYCATWDDSLIGWVFGGGTKLTVLGGSGGSEVQLVESGGGLVQPGGSLRLSCAASGFTFSTYAMNWVRQAPGKGLEWVGRIRSKYNNYATYYADSVKDRFTISRDDSKNSLYLQMNSLKTEDTAVYYCARHGNFGNSYVSWFAYWGQGTLVTVSSAAAGSHHHHHH
5 | 0.006 | 0.007 | CD33/CD3 2×2 T-cell engager 15 (bispecific antibody) DIQMTQSPSSLSASVGDRVTITCRSSTGAVTTSNYANWVQQKPGKAPKALIGGTNKRAPGVPSRFSGSLIGDKATLTISSLQPEDFATYYCALWYSNLWVFGQGTKVEIKGGSGGSQVQLVQSGAEVKKPGASVKVSCKASGYTFTSYDINWVRQAPGQGLEWMGWMNPNSGNTGFAQKFQGRVTMTRDTSTSTVYMELSSLRSEDTAVYYCARDRANTDYSFGMDVWGQGTLVTVSSGGSGQSVLTQPPSASGTPGQRVTISCSGSRSNIGSNTVNWYQQLPGTAPKLLIYGNNQRPSGVPDRFSGSKSGTSASLAISGLQSEDEADYYCATWDDSLIGWVFGGGTKLTVLGGSGGSEVQLVESGGGLVQPGGSLRLSCAASGFTFSTYAMNWVRQAPGKGLEWVGRIRSKYNNYATYYADSVKDRFTISRDDSKNSLYLQMNSLKTEDTAVYYCARHGNFGNSYVSYFAYWGQGTLVTVSSAAAGSHHHHHH
6 | 0.042 | 0.027 | CD33/CD3 2×2 T-cell engager 02 (bispecific antibody) DIQMTQSPSSLSASVGDRVTITCRSSTGAVTTSNYANWVQQKPGKAPKGLIGGTNKRAPGVPARFSGSGSGTDFTLTISSLQPEDFATYYCALWYSNLWVFGQGTKVEIKGGSGGSQVQLVQSGAEVKKPGASVKVSCKASGYTFTSYDINWVRQAPGQGLEWMGWMNPNSGNTGFAQKFQGRVTMTRDTSTSTVYMELSSLRSEDTAVYYCARDRAVTDYYYGMDVWGQGTLVTVSSGGSGQSVLTQPPSASGTPGQRVTISCSGSRSNIGSNTVNWYQQLPGTAPKLLIYGNNQRPSGVPDRFSGSKSGTSASLAISGLQSEDEADYYCATWDDSLIGWVFGGGTKLTVLGGSGGSEVQLVESGGGLVQPGGSLRLSCAASGFTFSTYAMNWVRQAPGKGLEWVGRIRSKYNNYATYYADSVKDRFTISRDDSKNSLYLQMNSLKTEDTAVYYCARHGNFGNSYVSWFAYWGQGTLVTVSSAAAGSHHHHHH
7 | 0.092 | 0.091 | CD33/CD3 2×2 T-cell engager 01 (bispecific antibody) DIQMTQSPSSLSASVGDRVTITCRSSTGAVTTSNYANWVQQKPGKAPKGLIGGTNKRAPGVPARFSGSGSGTDFTLTISSLQPEDFATYYCALWYSNLWVFGQGTKVEIKGGSGGSQVQLVQSGAEVKKPGASVKVSCKASGYTFTSYDINWVRQAPGQGLEWMGWMNPNSGNTGFAQKFQGRVTMTRDTSTSTVYMELSSLRSEDTAVYYCARDRANTDFSYGMDVWGQGTLVTVSSGGSGQSVLTQPPSASGTPGQRVTISCSGSRSNIGSNTVNWYQQLPGTAPKLLIYGNNQRPSGVPDRFSGSKSGTSASLAISGLQSEDEADYYCATWDDSLIGWVFGGGTKLTVLGGSGGSEVQLVESGGGLVQPGGSLRLSCAASGFTFSTYAMNWVRQAPGKGLEWVGRIRSKYNNYATYYADSVKDRFTISRDDSKNSLYLQMNSLKTEDTAVYYCARHGNFGNSYVSWFAYWGQGTLVTVSSAAAGSHHHHHH
8 | 0.094 | 0.062 | CD33/CD3 2×2 T-cell engager 04 (bispecific antibody) DIQMTQSPSSLSASVGDRVTITCRSSTGAVTTSNYANWVQQKPGKAPKGLIGGTNKRAPGVPARFSGSGSGTDFTLTISSLQPEDFATYYCALWYSNLWVFGQGTKVEIKGGSGGSQVQLVQSGAEVKKPGASVKVSCKASGYTFTSYDINWVRQAPGQGLEWMGWMNPNSGNTGFAQKFQGRVTMTRDTSTSTVYMELSSLRSEDTAVYYCARDRANTDYSLGMDVWGQGTLVTVSSGGSGQSVLTQPPSASGTPGQRVTISCSGSRSNIGSNTVNWYQQLPGTAPKLLIYGNNQRPSGVPDRFSGSKSGTSASLAISGLQSEDEADYYCATWDDSLIGWVFGGGTKLTVLGGSGGSEVQLVESGGGLVQPGGSLRLSCAASGFTFSTYAMNWVRQAPGKGLEWVGRIRSKYNNYATYYADSVKDRFTISRDDSKNSLYLQMNSLKTEDTAVYYCARHGNFGNSYVSWFAYWGQGTLVTVSSAAAGSHHHHHH
9 | 0.011 | 0.005 | CD33/CD3 2×2 T-cell engager 11 (bispecific antibody) DIQMTQSPSSLSASVGDRVTITCRSSTGAVTTSNYANWVQQKPGKAPKGLIGGTNKRAPGVPSRFSGSLIGDKATLTISSLQPEDFATYYCALWYSNLWVFGQGTKVEIKGGSGGSQVQLVQSGAEVKKPGASVKVSCKASGYTFTSYDINWVRQAPGQGLEWMGWMNPNSGNTGFAQKFQGRVTMTRDTSTSTVYMELSSLRSEDTAVYYCARDRANTDYSLGMDVWGQGTLVTVSSGGSGQSVLTQPPSASGTPGQRVTISCSGSRSNIGSNTVNWYQQLPGTAPKLLIYGNNQRPSGVPDRFSGSKSGTSASLAISGLQSEDEADYYCATWDDSLIGWVFGGGTKLTVLGGSGGSEVQLVESGGGLVQPGGSLRLSCAASGFTFSTYAMNWVRQAPGKGLEWVGRIRSKYNNYATYYADSVKDRFTISRDDSKNSLYLQMNSLKTEDTAVYYCARHGNFGNSYVSWFAYWGQGTLVTVSSAAAGSHHHHHH
10 | 0.098 | 0.075 | CD33/CD3 2×2 T-cell engager 20 (bispecific antibody) DIQMTQSPSSLSASVGDRVTITCRSSTGAVTTSNYANWVQQKPGKAPKGLIGGTNKRAPGVPSRFSGSLIGTDFTLTISSLQPEDFATYYCALWYSNLWVFGQGTKVEIKGGSGGSQVQLVQSGAEVKKPGASVKVSCKASGYTFTSYYMHWVRQAPGQGLEWMGIINPSGGSTSYAQKFQGRVTMTRDTSTSTVYMELSSLRSEDTAVYYCARDVVPAAIDYYGMDVWGQGTTVTVSSGGSGQSVLTQPPSASGTPGQRVTISCSGSSSNIGSNTVNWYQQLPGTAPKLLIYSDNQRPSGVPDRFSGSKSGSSASLAISGLQSDDEADYYCATWDDSLNGAVFGGGTKLTVLGGSGGSEVQLVESGGGLVQPGGSLRLSCAASGFTFSTYAMNWVRQAPGKGLEWVGRIRSKYNNYATYYADSVKDRFTISRDDSKNSLYLQMNSLKTEDTAVYYCARHGNFGNSYVSWFAYWGQGTLVTVSSAAAGSHHHHHH
11 | 0.134 | 0.065 | CD33/CD3 2×2 T-cell engager 07 (bispecific antibody) DIQMTQSPSSLSASVGDRVTITCRSSTGAVTTSNYANWVQQKPGKAPKALIGGTNKRAPGVPSRFSGSLIGDKATLTISSLQPEDFATYYCALWYSNLWVFGQGTKVEIKGGSGGSQVQLQESGGGVVQPGRSLRLSCAASGFSFSNYGIHWVRQAPGKGLEWVALISYDGNKKFYADSVKGRFAISRDTSKNTVDLQMTSLRPEDTAVYYCAKDRLESAAFDYWGQGTLVTVSSGGSGGSSYELTQPPSVSVAPGQTAMITCGGNNIGSTTVHWYQQKPGQAPVLVVYDDNERPSGIPERFSGSNSGSTATLTINRVEAGDEADYYCQVWDSGSDHVVFGGGTKLTVLGGSGGSEVQLVESGGGLVQPGGSLRLSCAASGFTFSTYAMNWVRQAPGKGLEWVGRIRSKYNNYATYYADSVKDRFTISRDDSKNSLYLQMNSLKTEDTAVYYCARHGNFGNSYVSYFAYWGQGTLVTVSSAAAGSHHHHHH
